Measurements reported in US20200046811.

Target: T1, Recombinant Human FGF23 (Fibroblast Growth Factor 23), Q9GZV9
T1 chain: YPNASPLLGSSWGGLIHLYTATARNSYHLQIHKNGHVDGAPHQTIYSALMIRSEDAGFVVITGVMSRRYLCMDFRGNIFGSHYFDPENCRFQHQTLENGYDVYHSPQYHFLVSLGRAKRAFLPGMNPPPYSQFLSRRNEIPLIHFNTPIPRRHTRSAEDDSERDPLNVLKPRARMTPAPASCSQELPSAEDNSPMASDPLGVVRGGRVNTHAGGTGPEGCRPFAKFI

B1: Recombinant human t-PA (tissue plasminogen activator) (protein)
chain: SYQVICRDEKTQMIYQQHQSWLRPVLRSNRVEYCWCNSGRAQCHSVPVKSCSEPRCFNGGTCQQALYFSDFVCQCPEGFAGKCCEIDTRATCYEDQGISYRGTWSTAESGAECTNWNSSALAQKPYSGRRPDAIRLGLGNHNYCRNPDRDSKPWCYVFKAGKYSSEFCSTPACSEGNSDCYFGNGSAYRGTHSLTESGASCLPWNSMILIGKVYTAQNPSAQALGLGKHNYCRNPDGDAKPWCHVLKNRRLTWEYCDVPSCSTCGLRQYSQPQFRIKGGLFADIASHPWQAAIFAKHRRSPGERFLCGGILISSCWILSAAHCFQERFPPHHLTVILGRTYRVVPGEEEQKFEVEKYIVHKEFDDDTYDNDIALLQLKSDSSRCAQESSVVRTVCLPPADLQLPDWTECELSGYGKHEALSPFYSERLKEAHVRLYPSSRCTSQHLLNRTVTDNMLCAGDTRSGGPQANLHDACQGDSGGPLVCLNDGRMTLVGIISWGLGCGQKDVPGVYTKVTNYLDWIRDNMRP
in vitro proteolysis of FGF23, silver stained SDS-PAGE gel: smaller fragments are generated on a silver stained SDS-PAGE gel indicating proteolytic cleavage
